# Target: human complement C3b (human) (UniProt P01024)
# Sequence of UniProt P01024 (P01024 23-667, chain 1 of 2): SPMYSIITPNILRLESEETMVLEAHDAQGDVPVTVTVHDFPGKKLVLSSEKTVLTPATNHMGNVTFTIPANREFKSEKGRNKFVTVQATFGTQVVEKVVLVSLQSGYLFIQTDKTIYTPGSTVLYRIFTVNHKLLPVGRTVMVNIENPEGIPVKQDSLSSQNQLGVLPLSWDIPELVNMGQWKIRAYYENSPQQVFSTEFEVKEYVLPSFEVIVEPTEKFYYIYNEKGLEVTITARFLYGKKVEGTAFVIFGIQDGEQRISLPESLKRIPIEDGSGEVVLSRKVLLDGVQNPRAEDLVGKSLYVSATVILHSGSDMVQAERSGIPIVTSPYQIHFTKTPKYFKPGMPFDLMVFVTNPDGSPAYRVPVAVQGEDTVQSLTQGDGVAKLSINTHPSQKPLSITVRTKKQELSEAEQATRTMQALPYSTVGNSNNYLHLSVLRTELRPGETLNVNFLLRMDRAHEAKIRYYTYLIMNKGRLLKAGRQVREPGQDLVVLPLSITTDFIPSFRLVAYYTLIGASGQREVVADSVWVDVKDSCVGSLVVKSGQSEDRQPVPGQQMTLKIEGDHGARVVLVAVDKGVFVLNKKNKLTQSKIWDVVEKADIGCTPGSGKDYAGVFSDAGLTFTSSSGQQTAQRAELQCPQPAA
# Sequence of UniProt P01024 (P01024 749-1663, chain 2 of 2): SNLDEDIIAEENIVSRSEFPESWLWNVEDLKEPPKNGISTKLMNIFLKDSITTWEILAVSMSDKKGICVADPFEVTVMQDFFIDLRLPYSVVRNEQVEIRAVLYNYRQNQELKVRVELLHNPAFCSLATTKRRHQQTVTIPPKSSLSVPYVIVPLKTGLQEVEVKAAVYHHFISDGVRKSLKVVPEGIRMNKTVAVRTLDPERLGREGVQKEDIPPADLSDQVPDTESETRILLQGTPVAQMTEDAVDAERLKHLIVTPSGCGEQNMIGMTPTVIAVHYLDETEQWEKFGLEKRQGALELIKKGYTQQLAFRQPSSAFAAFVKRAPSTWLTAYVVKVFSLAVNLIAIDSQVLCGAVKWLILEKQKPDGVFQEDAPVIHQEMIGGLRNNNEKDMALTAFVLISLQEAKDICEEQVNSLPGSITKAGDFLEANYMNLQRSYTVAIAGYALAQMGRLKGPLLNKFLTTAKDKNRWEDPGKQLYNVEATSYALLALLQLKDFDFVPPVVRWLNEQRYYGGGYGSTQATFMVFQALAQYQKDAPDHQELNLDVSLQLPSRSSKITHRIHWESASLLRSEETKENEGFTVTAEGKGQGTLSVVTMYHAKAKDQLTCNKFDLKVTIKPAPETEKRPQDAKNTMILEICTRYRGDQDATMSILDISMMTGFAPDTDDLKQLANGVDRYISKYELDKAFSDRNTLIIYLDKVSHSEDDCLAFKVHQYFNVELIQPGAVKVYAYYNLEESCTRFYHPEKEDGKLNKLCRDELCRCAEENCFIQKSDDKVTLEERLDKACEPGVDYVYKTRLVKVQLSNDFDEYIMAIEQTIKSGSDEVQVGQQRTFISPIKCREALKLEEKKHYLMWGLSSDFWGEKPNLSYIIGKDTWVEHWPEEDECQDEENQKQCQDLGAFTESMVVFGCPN
substance,measurement,value
"recombinant SARS-CoV-2 ORF8 protein, His-tagged (from UniProt P0DTC8 18-121) (natural protein)","IC50 of inhibition of normal human serum-induced hemolysis of rabbit erythrocytes, ORF8 39 nM to 5000 nM",2300 nM

# From PMC9851726
